B1: PB1-1-MinTK: promoter: 2 mouse PBREM elements with MinTK minimal promoter, SEQ ID NO: 10 (nucleic acid)
DNA: TCTGTACTTTCCTGACCTTGGCACAGTGCCACCATCAACTTGCCTGACACCCATTACTCGCATCCATTCTCTCTGTACTTTCCTGACCTTGGCACAGTGCCACCATCAACTTGCCTGACACCGCTGGGAGTTCGTAGACGGAGATCCGGCCCCGCCCAGCGTCTTGTCATTGGCGAATTCGAACACGCAGATGCAGTCGGGGCGGCGCGGTCCGAGGTCCACTTCGCATATTAAGGTGACGCGTGTGGCCTCGAACACCGAGCGACCCTGCAGCGACCCGCTTAACAGCGTCAACAGCGTGCCGCAGATCTCGAGGAGCTTGGCGAGATTTTCAGGAGCTAAGGAAGCTAAAC
modifications: PB1-1-MinTk (2xPBREM)
B2: PB1-CMV-MP: promoter: 1 mouse PBREM element with CMV minimal promoter, SEQ ID NO: 8 (nucleic acid)
DNA: TCTGTACTTTCCTGACCTTGGCACAGTGCCACCATCAACTTGCCTGACACCGCTGGGAGTTCGTAGACGGAGCGATTAATCCATATGCAGGTCTATATAAGCAGAGCTCGTTTAGTGAACCGTCAGATCGCCTAGATACGCCATCCACGCTGTTTTGACCTCCATAGAAGATCGCCACCC
modifications: PB1-CMV-MP
B3: PB1-SV40-MP: promoter: 1 mouse PBREM element with SV40 minimal promoter, SEQ ID NO: 9 (nucleic acid)
DNA: TCTGTACTTTCCTGACCTTGGCACAGTGCCACCATCAACTTGCCTGACACCGCTGGGAGTTCGTAGACGGACTAGCCCGGGCTCGAGATCTGCGATCTGCATCTCAATTAGTCAGCAACCATAGTCCCGCCCCTAACTCCGCCCATCCCGCCCCTAACTCCGCCCAGTTCCGCCCATTCTCCGCCCCATCGCTGACTAATTTTTTTTATTTATGCAGAGGCCGAGGCCGCCTCGGCCTCTGAGCTATTCCAGAAGTAGTGAGGAGGCTTTTTTGGAGGCCTAGGCTTTTGCAAAAAGCTTGGCATTCCGGTACTGTTGGTAAAGCCACCC
modifications: PB1-SV40-MP
B4: PB1-3-MinTK: promoter: 4 mouse PBREM elements with MinTK minimal promoter, SEQ ID NO: 12 (nucleic acid)
DNA: TCTGTACTTTCCTGACCTTGGCACAGTGCCACCATCAACTTGCCTGACACCCATTACTCGCATCCATTCTCTCTGTACTTTCCTGACCTTGGCACAGTGCCACCATCAACTTGCCTGACACCGCACTGAAGGTCCTCAATCGTCTGTACTTTCCTGACCTTGGCACAGTGCCACCATCAACTTGCCTGACACCCTGACCTCCTGCCAGCAATATCTGTACTTTCCTGACCTTGGCACAGTGCCACCATCAACTTGCCTGACACCGCTGGGAGTTCGTAGACGGAGATCCGGCCCCGCCCAGCGTCTTGTCATTGGCGAATTCGAACACGCAGATGCAGTCGGGGCGGCGCGGTCCGAGGTCCACTTCGCATATTAAGGTGACGCGTGTGGCCTCGAACACCGAGCGACCCTGCAGCGACCCGCTTAACAGCGTCAACAGCGTGCCGCAGATCTCGAGGAGCTTGGCGAGATTTTCAGGAGCTAAGGAAGCTAAAC
modifications: PB1-3-MinTk

Test system: AXOL ARE-hepatocytes
Assay: Luciferase expression from PBREM promoters in AXOL ARE-hepatocytes, induction by CITCO
Type: cell-based, human
Conditions: for induced luciferase expression as a ratio to CMV-IE: induction with CITCO, mean of 3 biological replicates
From the text: Axol Assay-Ready Expanded (ARE) Hepatocytes are primary human hepatocytes that have been expanded in vitro. Large batch sizes (up to 2000 vials) are available, ensuring a reliable, ready-to-use and consistent source of primary hepatocytes. ARE Hepatocytes express CYP enzymes, are metabolically functional, are polarized and can be infected by the Hepatitis C virus. AXOL ARE-hepatocytes express CAR negating the need to transfect with a CAR-expressing plasmid.
• AXOL assay-ready expanded (ARE) hepatocytes (Axol, ax3701) • ARE hepatocyte thawing medium (Axol, ax3705) • ARE maintenance medium (Axol, ax3710) • Virimer red transfection reagent (Lipocalyx, VR04-02-15) • CITCO, lucifierase, β-galactosidase and BCA kits as described above
ARE hepatocytes were cultured and transfected as described in the manufacturer's manual. 200,000 cells were seeded in 2 ml culture medium in collagen-coated 6 well plate. The cells were incubated for 4 h at 37° C. and 5% CO2 for sufficient adhesion. 200 μl of transfection mixture containing the DNA to be transfected (PB1-MinTK/PB1-CMV/PB1-SV40 operably linked with luciferase and β-galactosidase containing promoter) was added and the cells were incubated on an orbital shaker at 100 rpm for three hours at 37° C. and 5% CO2. 3 hrs after transfection CITCO was added to the appropriate wells. Cells were incubated under static conditions at 37° C. and 5% CO2 overnight and in the morning the medium was replaced with fresh ARE Hepatocyte Maintenance Medium. Readout was 24 hrs after induction. […]

[1] = single PBREM element, minimal promoters compared

| Molecule | induced luciferase expression as a ratio to CMV-IE | expression level compared to CMV-IE (1 μM CITCO) [%] | expression driven [1] | induction of luciferase expression (1 μM CITCO, readout 24 hrs after induction) | background level [1] |
| --- | --- | --- | --- | --- | --- |
| B1 | 1.5 |  |  |  |  |
| B2 |  | 10 | little to no expression |  |  |
| B3 |  | 55 | highest expression | around 7 fold | higher background level |
| B4 | 2.66 |  |  |  |  |
